B1: 3D10a (antibody, human IgG1, kappa, L234A L235A, V domains shown)
VH: EVQLVESGGGLVKPGGSLRLSCAASGFTFSASTMAWVRQAPGKGLEWVSSVSGDSHHIYYADSLKGRFTISRDNAKNSLYLQMNSLRAEDTAVYYCARERLLRLGVGFDSWGQGTLVTVSS
VL: DIQMTQSPSSLSASVGDRVTITCRASQRISGFVNWYQQKPGKAPKLLIYAASTLQSGVPSRFSGSGSGTDFTLTISSLQPEDFATYYCQQSYSPLYTFGQGTKLEIKR
B2: 3D9b (antibody, human IgG1, kappa, L234A L235A, V domains shown)
VH: EVQLVESGGGLVKPGGSLRLSCAASGFTFSTYTMHWVRQAPGKGLEWVSSISSRSAYKYYADSVKGRFTISRDNAKNSLYLQMNSLRAEDTAVYYCARDFFQLGPPRFDSWGQGTLVTVSS
VL: DIQMTQSPSSLSASVGDRVTITCRASQRISSFLNWYQQKPGKAPKLLIYGASNLQSGVPSRFSGSGSGTDFTLTISSLQPEDFATYYCQQSYSPSYTFGQGTKLEIKR
B3: 4D3 (antibody, human IgG1, kappa, L234A L235A, V domains shown)
VH: EVQLVESGGGLVKPGGSLRLSCAASGFTFSSYTMTWVRQAPGKGLEWVSSISSGGHYIYYTDSLKGRFTISRDNAKNSLYLQMNSLRAEDTAVYYCARERLLRLGVGFDFWGQGTLVTVSS
VL: DIQMTQSPSSLSASVGDRVTITCRASQSISGYLNWYQQKPGKAPKLLIYAASTLQSGVPSRFSGSGSGTDFTLTISSLQPEDFATYYCQQSYSALYTFGQGTKLEIKR
B4: 3F6c (antibody, human IgG1, kappa, L234A L235A, V domains shown)
VH: EVQLVESGGGLVKPGGSLRLSCAASGFTFSSYTMDWVRQAPGKGLEWVSSIGSNGDYIYYADSVRGRFTISRDNAKNSLYLQMNSLRAEDTAVYYCARGQLAVAGTHFDYWGQGTLVTVSS
VL: DIQMTQSPSSLSASVGDRVTITCRASQKVNKYVNWYQQKPGKAPKLLIYAASTLQSGVPSRFSGSGSGTDFTLTISSLQPEDFATYYCQQSYSPLSTFGQGTKLEIKR

Assays:
[1] = target: T1, Mouse MuSK as it stands on mouse muscle (neuromuscular junctions, C2C12 myotubes) (mouse, UniProt Q61006 22-868); assay: cell-based or functional assay
T1 sequence (looked up): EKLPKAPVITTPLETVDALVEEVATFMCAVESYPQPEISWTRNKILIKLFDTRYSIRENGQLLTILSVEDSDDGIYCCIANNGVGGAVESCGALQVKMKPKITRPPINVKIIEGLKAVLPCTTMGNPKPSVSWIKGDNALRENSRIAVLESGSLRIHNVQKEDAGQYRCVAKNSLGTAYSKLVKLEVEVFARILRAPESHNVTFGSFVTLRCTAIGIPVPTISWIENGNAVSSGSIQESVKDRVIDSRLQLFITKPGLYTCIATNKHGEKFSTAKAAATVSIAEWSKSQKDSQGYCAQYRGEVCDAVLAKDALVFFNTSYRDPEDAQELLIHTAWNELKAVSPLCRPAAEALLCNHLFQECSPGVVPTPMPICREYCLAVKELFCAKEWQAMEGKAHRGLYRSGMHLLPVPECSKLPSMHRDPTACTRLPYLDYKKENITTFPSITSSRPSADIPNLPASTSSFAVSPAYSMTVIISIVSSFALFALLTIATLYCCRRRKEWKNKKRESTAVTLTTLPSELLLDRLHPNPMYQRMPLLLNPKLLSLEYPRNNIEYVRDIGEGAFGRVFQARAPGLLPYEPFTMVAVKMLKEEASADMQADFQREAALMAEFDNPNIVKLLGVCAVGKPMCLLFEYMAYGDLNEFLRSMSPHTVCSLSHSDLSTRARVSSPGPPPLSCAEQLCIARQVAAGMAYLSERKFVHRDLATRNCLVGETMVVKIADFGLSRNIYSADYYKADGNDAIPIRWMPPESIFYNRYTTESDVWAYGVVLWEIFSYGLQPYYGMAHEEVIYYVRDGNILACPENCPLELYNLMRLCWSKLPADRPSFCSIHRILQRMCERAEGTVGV

[2] = target: T2, Human MuSK (R&D Systems, cat. 10189-MK, histidine tag) (human, UniProt O15146 24-495); assay: SPR (Biacore), MuSK-coated chip presaturated with 500 nM 3F6c (competitor)
T2 construct: Bought protein; also called human monomeric MuSK-6xhis; not shown: histidine tag (6xhis)
T2 sequence: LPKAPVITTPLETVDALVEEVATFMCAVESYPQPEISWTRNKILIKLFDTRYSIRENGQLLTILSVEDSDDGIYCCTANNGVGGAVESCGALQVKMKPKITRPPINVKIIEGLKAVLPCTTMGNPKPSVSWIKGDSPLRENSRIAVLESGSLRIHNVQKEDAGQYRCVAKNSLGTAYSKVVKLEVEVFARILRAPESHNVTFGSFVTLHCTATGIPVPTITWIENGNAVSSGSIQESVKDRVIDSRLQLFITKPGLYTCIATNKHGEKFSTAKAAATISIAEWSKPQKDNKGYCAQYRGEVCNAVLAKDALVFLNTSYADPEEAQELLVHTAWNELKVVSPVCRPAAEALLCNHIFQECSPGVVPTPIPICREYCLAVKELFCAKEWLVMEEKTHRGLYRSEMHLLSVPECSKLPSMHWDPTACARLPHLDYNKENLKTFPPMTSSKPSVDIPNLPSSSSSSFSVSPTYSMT
Method: (§1) A chip was coated with ˜5000 RU of human MuSK (Lot nr DHUCO 11908A, batch nr 1089_MK). In a first experiment the saturating concentration of the pre-leads was determined. This is the concentration where the amplitude of a specific pre-lead doesn't increase anymore when additional pre-lead is injected on the immobilized MuSK.

[3] = target: T2, Human MuSK (R&D Systems, cat. 10189-MK, …); assay: SPR (Biacore), MuSK-coated chip presaturated with 500 nM 3D9b (competitor)
Method: as §1

[4] = target: T2, Human MuSK (R&D Systems, cat. 10189-MK, …); assay: SPR (Biacore), pH 7.4 (summary table, repeats the average of Table 16); pH 7.4
Text: In order to study pH dependent binding of our antibodies to MuSK, the Biacore was used with the same setup as described in the paragraph entitled “Binding affinity for mouse, human and rhesus monkey recombinant MuSK in Biacore”. 6. […] For the other antibodies there is no real difference observed between pH 7.4 and 5.5.

[5] = target: T3, human monomeric MuSK FLAG streptavidin (in house produced, batch 27-6-2019) (human, UniProt O15146 24-495); assay: epitope binning ELISA (coated anti-MuSK Fab, MuSK, IgG, anti-Fc HRP); competitor: 3D9b
T3 construct: also called full length MuSK; not shown: FLAG and streptavidin tags
T3 sequence: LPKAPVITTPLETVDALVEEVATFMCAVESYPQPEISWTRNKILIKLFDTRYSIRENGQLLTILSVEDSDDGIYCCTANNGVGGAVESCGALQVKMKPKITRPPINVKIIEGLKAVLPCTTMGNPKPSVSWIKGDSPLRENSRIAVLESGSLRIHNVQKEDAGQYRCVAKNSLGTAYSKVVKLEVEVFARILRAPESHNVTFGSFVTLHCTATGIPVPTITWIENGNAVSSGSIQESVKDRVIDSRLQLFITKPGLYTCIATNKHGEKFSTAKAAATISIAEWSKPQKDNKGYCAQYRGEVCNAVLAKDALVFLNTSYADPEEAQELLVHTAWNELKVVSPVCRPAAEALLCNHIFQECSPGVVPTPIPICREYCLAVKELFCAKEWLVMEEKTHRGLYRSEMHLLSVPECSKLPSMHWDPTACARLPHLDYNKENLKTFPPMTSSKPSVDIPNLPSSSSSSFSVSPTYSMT
Method: (§2) For epitope binning—An ELISA plate was coated at 1 μg/ml of the anti-MuSK Fabs and incubated overnight at 4° C. Next, the plate was wash with PBS followed by blocking with 1% casein in PBS for one hour. After washing the plate, 1 μg/ml of human monomeric MuSK (in house produced, batch 27-6-2019) was incubated for one hour at RT. The plate was washed and anti-MuSK antibodies at 0.3-10 μg/ml were added to the plate and incubated for one hour at RT. After washing the plate, detection antibody (goat anti-human Fc HRP (Jackson Immunoresearch cat. 109-035-098)) was added at 5000 fold dilution in PBS 0.1% casein. The plate was incubated for one hour at RT and washed with PBS-T. TMB was added and the reaction was stopped by adding H2504. […]
(§3) For the epitope binning ELISA, a plate was coated with anti-MuSK Fab and human monomeric MuSK was added after blocking the plate. Next the different antibodies were added and allowed to bind.

[6] = target: T3, human monomeric MuSK FLAG streptavidin …; assay: epitope binning ELISA (coated anti-MuSK Fab, MuSK, IgG, anti-Fc HRP); competitor: 3F6c
Method: as §2, §3

| Binder | AChR clusters larger or equal to 3 µm compared to agrin; antibody 0.11 µg/mL [1] | AChR clusters larger or equal to 3 µm compared to agrin; antibody 1.1 µg/mL [1] | AChR clusters larger or equal to 3 µm compared to agrin; antibody 11 µg/mL [1] | AChR clusters larger or equal to 3 µm compared to agrin; antibody 110 µg/mL [1] | amplitude of prelead after presaturating MuSK (RU) [2] | extra amplitude (%) [2] | normalized extra amplitude (%) [2] | amplitude of prelead after presaturating MuSK (RU) [3] | extra amplitude (%) [3] | normalized extra amplitude (%) [3] | koff [4] | OD 450 nm [5] | OD 450 nm [6] |
| --- | --- | --- | --- | --- | --- | --- | --- | --- | --- | --- | --- | --- | --- |
| B1 | 80 % of agrin | 79 % of agrin | 76 % of agrin | 73 % of agrin | 75 RU | 3.2% | 1.4% | -1 RU | -0.5% | -1.5% | 0.00016 s⁻¹ | 0.115 OD | 0.162 OD |
| B2 | 65 % of agrin | 99 % of agrin | 93 % of agrin | 84 % of agrin | 191 RU | 11.5% | 9.7% | 40 RU | 1% | 0% | – | 0.15 OD | 0.186 OD |
| B3 | 63 % of agrin | 80 % of agrin | 80 % of agrin | 75 % of agrin | 68 RU | 2.8% | 1.1% | -3 RU | -1.6% | -2.6% | – | 0.061 OD | 0.1 OD |
| B4 | 74 % of agrin | 57 % of agrin | 62 % of agrin | 61 % of agrin | 64 RU | 1.8% | 0% | -5 RU | -2.1% | -3.1% | – | 0.133 OD | 0.156 OD |

From patent US20230110188A1 (ARGENX IIP, published 2023)
